Test results as given in article doi:10.1101/2021.11.02.466875.
Read-outs that look alike come from different tables or passages of the source.

Tests used:
Assay in all cases: BLI
[1] = biological target: RapC (Bacillus velezensis SQR9)
[2] = biological target: RapC (Bacillus velezensis SQR9); remark: listed apart in the source
[3] = biological target: RapC (Bacillus velezensis SQR9); remark: listed apart in the source
[4] = biological target: RapC (Bacillus velezensis SQR9); remark: listed apart in the source

Kd [1]: 26.8 nM
Kd [2]: 8.69 nM
Kd [3]: 5.49 nM
Kd [4]: 13.5 nM
Substance: ComA (natural protein)
